Consider 17 sequences from the supplement of paper PMC9170038.

In this data set the test system is MS2 coat protein. Put plainly: apparent KD of MS2 coat protein; higher = weaker reporter binding. As to conditions: Eterna round: R107. An outline of the steps: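 The buffer was 100 mM Tris-HCl pH 7.5 with 80 mM KCl and 4 mM MgCl2, used without or with constant ligand. In it, RNA switches transcribed on-chip from Illumina sequencing clusters were titrated with SNAP-549-labelled MS2 coat protein in twofold steps from 0.7 or 1.5 nM to 3 µM. Apparent KD for each design is the median of its normalised cluster binding-curve fits.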

[1] abbreviates: input ligand: theophylline 20 uM.
Where [2] appears, read: input ligand: tryptophan 2.4 mM.
[3] abbreviates: input ligand: theophylline 2 mM.

For the sequence “GCUGGGUGCGCAAGGACCUGGCGUUGCGAUACCAGCACGGUAACGUGCCCUUGGCAGCGCACAUGAGGAUCACCCAUGUGGUGUU [#1 Exclusion - Theophylline A Attempt #19 (HarryS)]”, the “apparent KD of MS2 coat protein” value reads like this: (input ligand: arginine 13.2 mM) 62.8 nM; under setting [1], 360 nM; under setting [2], 221 nM.
Take “GCUGUUGCGGUGAGGUAUCCGGCUGUGGAAGGAGCGCGGAAGGCCGCAGGUAGGUCGCCACAUGAGGAUCACCCAUGUCGAUAUA [Aninati]”: the “apparent KD of MS2 coat protein” value was found to be 48.7 nM (input ligand: arginine 13.2 mM); 16.9 nM (input ligand: none); 80.6 nM under setting [1]; 28.3 nM under setting [3]; 16.8 nM under setting [2].
Regarding “GCUUGGGUGGCACAGCCCUGGCAGUGCGAUACCAGCACGGUAACGUGCCCUUGGCAGCGCACAUGAGGAUCACCCAUGUGGUGCG [#1 Exclusion - Theophylline A Attempt #25 (HarryS)]”, the “apparent KD of MS2 coat protein” value is, setting by setting: (input ligand: arginine 13.2 mM) 28.7 nM; under setting [1], 197 nM; under setting [2], 62.6 nM.
With “GGAAUAAUGGCGGCCGCCACUAACUCAUAUACAUCAUGUACAUGAGGAUCACCCAUGUAGGUGUAUAGGACCGGGCCAUAAUUCC [39MS split4]”, the “apparent KD of MS2 coat protein” value by setting is: (input ligand: arginine 13.2 mM) 20.1 nM; under setting [1], 27.3 nM; under setting [3], 25.1 nM.
“GGACUAACCAGAAGGAGCGACACGCAGAAACUGCAAAUUCCUCUGCACGAGGAUCACCCGUGUCAGGUAGGUCGCUGGUUAGUCG”: the “apparent KD of MS2 coat protein” value by setting is: (input ligand: arginine 13.2 mM) 29.9 nM; (input ligand: none) 27.4 nM; under setting [1], 35.5 nM; under setting [3], 36.6 nM; under setting [2], 26.9 nM.
On to “GGACUAACCAGAAGGAGCGGCGCGCAGAAACUGCUAAUUCCUCCGCACGAGGAUCACCCGUGUCAGGUAGGUCGCUGGUUAGUCG [ArgBX 28]”, for which the “apparent KD of MS2 coat protein” value came out at 10.3 nM (input ligand: arginine 13.2 mM), 12.4 nM under setting [1], 13.4 nM under setting [3] and 11 nM under setting [2].
For “GGAGUAGGAAACUAUUCCAAUCCUCGUGAACGAGGACCGGUACGGCCGCCACUCGAUAAAUAAAUACAUGAGGAUCACCCAUGUA [Ex Tryptophan A 22]”, the “apparent KD of MS2 coat protein” value amounted to 20 nM (input ligand: arginine 13.2 mM), 28.9 nM under setting [1] and 34.1 nM under setting [3].
As for “GGAUAGGACACGGCCGCCACUACCUAGGAUACUAGCAACAUUUGGGUACGUGAGGAUCACCCACGUAGGACCGGGUGUCCUAUCG”, the “apparent KD of MS2 coat protein” value reads like this: (input ligand: arginine 13.2 mM) 15.2 nM; under setting [1], 19.1 nM; under setting [3], 14.5 nM; under setting [2], 20.4 nM.
Turning to “GGAUAGGACACGGCCGCCACUAGCUAGGAUACUAGCAACAUUUCCUCAUAUGAGGAUCACCCAUAUAGGACCGGGUGUCCUAUCG”, the “apparent KD of MS2 coat protein” value reads like this: (input ligand: arginine 13.2 mM) 215 nM; (input ligand: none) 376 nM; under setting [1], 389 nM; under setting [3], 471 nM; under setting [2], 1140 nM.
On to “GGAUAGGACACGGCCGCCACUGCCUAGGAUACUAGCAACAUUUGGGUACAAGAGGAUCACCCUUGUAGGACCGGGUGUCCUAUCG”, for which the “apparent KD of MS2 coat protein” value (input ligand: arginine 13.2 mM) turned out to be 27.1 nM; the “apparent KD of MS2 coat protein” value (input ligand: none) stood at 25 nM; the “apparent KD of MS2 coat protein” value under setting [1] was 38.6 nM; the “apparent KD of MS2 coat protein” value under setting [3] came to 29.3 nM; the “apparent KD of MS2 coat protein” value under setting [2] is 26 nM.
Take “GGAUAGGACAGAAGGAGCGUGAGAUGCAUACCUUCAUUCCUCACAUGAGGAUCACCCAUGUCACAGGUAGGUCGCUGUCCUAUCG [#20 Exclusion - Arginine B]”: the “apparent KD of MS2 coat protein” value reads like this: (input ligand: arginine 13.2 mM) 64.8 nM; (input ligand: none) 93.5 nM; under setting [1], 108 nM; under setting [3], 96.5 nM; under setting [2], 90.7 nM.
On to “GGCGACAUGAGGAUCACCCAUGUGACACCUCGAGGACCGGUACGGCCGCCACUCGUAACCUGCACUAUAGCUACCACGAUUAGCC [theeternabot_sameState_MS2_Trp_A_44]”, for which the “apparent KD of MS2 coat protein” value (input ligand: arginine 13.2 mM) came to 84.3 nM, the “apparent KD of MS2 coat protein” value under setting [1] came to 238 nM and the “apparent KD of MS2 coat protein” value under setting [3] amounted to 233 nM.
Consider “GGCGUCGGGCGAAGGAGCGUGAAGACAUGAGGAUCACCCAUGUAGAGGCCCGAACAGGGUUCGCAGGUAGGUCGCGCGCGGUGCC [#1 Same State - Arginine B Attempt #6 (HarryS)]”, for which the “apparent KD of MS2 coat protein” value was 11.5 nM (input ligand: arginine 13.2 mM); 13.6 nM (input ligand: none); 24.7 nM under setting [1]; 21.4 nM under setting [3]; 15.6 nM under setting [2].
With “GGGAGGUAGGCGGCCGCCACUGAUUUUCAUAUAUAUAUAACAUGAGGAUCACCCAUGUAGAUAUGCAGGACCGGGCCUGUUUUUU [aaaK]”, the “apparent KD of MS2 coat protein” value is 18.8 nM (input ligand: arginine 13.2 mM), 30.5 nM under setting [1] and 26.3 nM under setting [3].
For the sequence “GGGCAAGAGGGAAGGAGCGUCAGCUGAGUCACAUGAGGAUCACCCAUGUCGCACAUAGUGUGACAGGUAGGUCGCCCUCUACCCU [Esceinan]”, the “apparent KD of MS2 coat protein” value (input ligand: arginine 13.2 mM) worked out at 57.8 nM; the “apparent KD of MS2 coat protein” value (input ligand: none) was 124 nM; the “apparent KD of MS2 coat protein” value under setting [1] turned out to be 167 nM; the “apparent KD of MS2 coat protein” value under setting [3] is 107 nM; the “apparent KD of MS2 coat protein” value under setting [2] is 89.3 nM.
For “GGGCGCGUGGACCGGCGUGCUCCGCUCCGUCGAGGACCGGUACGGCCGCCACUCGACAUGAGGAUCACCCAUGUGCGAGCUCGCG [#1 Exclusion - Tryptophan A Attempt #15 (HarryS)]”, in that order: 16.2 nM, 19.3 nM, 39.8 nM, 32.1 nM and 191 nM.
With “GGGUACAUCGCGGCCGCCACUCAUGUAAAUACAUGAGGAUCACCCAUGUCGAUGGAGACAUCGGAGAGGACCGGGCGAUGUACCG”, the “apparent KD of MS2 coat protein” value stood at 224 nM (input ligand: arginine 13.2 mM); 398 nM (input ligand: none); 352 nM under setting [1]; 540 nM under setting [3]; 264 nM under setting [2].
